This note sets out measurements from patent publication US20030224972A1.

In the experiment the target is MC1-R. The experiment in a line: cell-based or functional assay.

With “Recombinant mouse agouti signal protein (from UniProt Q03288 23-131) (ligand)”, the inhibits activation of the MC1-R is 220 pM.
